T1: Recombinant human PSGL-1(ECD)-hFc1 (R&D Systems, Cat. 3345-PS) (human, UniProt Q14242 42-305)
T1 construct: Bought; Gln42-Val295 counted on AAC50061; also called PSGL-1-Fc; PSGL-1-hFc1 chimera; not shown: human IgG1 Fc, Pro100-Lys330
T1 sequence: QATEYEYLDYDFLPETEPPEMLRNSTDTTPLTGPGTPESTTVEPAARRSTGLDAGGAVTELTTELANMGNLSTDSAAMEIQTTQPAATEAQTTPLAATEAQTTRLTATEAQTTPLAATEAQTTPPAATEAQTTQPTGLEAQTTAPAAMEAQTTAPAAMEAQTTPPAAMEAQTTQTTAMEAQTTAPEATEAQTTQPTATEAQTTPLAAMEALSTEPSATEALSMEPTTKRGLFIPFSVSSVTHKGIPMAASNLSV

T2: Biotin PSGL-1(42-62) peptide, unmodified (human, C-terminal Lys-biotin)
T2 construct: Residues 42-62 followed by GGGK-biotin; also called WT; wild-type
T2 peptide: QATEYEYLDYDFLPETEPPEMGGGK

T3: Biotin Y46,48,51(SO3) PSGL-1(42-62) peptide (human, sulfotyrosine at Y46, Y48 and Y51; C-terminal Lys-biotin)
T3 construct: also called fully sulfated N-terminal PSGL-1 peptide
T3 peptide: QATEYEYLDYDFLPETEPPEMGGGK

T4: Cynomolgus PSGL-1(ECD)-HIS (cynomolgus macaque)
T4 construct: also called Cyno PSGL1-His
T4 chain: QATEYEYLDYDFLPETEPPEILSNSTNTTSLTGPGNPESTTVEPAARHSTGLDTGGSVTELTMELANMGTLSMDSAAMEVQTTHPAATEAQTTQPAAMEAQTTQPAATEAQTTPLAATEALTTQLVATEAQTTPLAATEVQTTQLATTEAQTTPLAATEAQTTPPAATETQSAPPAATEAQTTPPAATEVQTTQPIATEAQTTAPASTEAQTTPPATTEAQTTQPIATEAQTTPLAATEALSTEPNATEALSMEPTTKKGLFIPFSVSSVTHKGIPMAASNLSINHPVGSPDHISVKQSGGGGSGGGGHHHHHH

T5: Biotin sY51 PSGL-1(42-62) peptide (human, sulfotyrosine at Y51; C-terminal Lys-biotin)
T5 construct: also called Y51(SO3) PSGL-1(42-62)
T5 peptide: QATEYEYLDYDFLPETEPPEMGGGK

T6: Scrambled Y46,48,51(SO3) PSGL-1(42-62) biotin peptide (sulfotyrosine at peptide positions 5, 7 and 10; C-terminal Lys-biotin)
T6 construct: also called scrambled sulfated peptide: biotin
T6 peptide: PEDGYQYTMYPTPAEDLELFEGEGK


How the values were obtained:
[1] = biological target: T1, Recombinant human PSGL-1(ECD)-hFc1 (R&D …); test: ELISA, plate-bound target
[2] = biological target: T2, Biotin PSGL-1(42-62) peptide, unmodified; test: ELISA, plate-bound target
[3] = biological target: T3, Biotin Y46,48,51(SO3) PSGL-1(42-62) …; test: ELISA, plate-bound target
[4] = biological target: T1, Recombinant human PSGL-1(ECD)-hFc1 (R&D …); test: blocking ELISA vs L-selectin-Fc
Summary of the method: (§1)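 Coat: PSGL-1-Fc 2.5 ug/mL, PBS pH 7.4, 4° C overnight. Ab serial dilutions in duplicate, 3% BSA buffer, 45 min 37° C. HRP-streptavidin 45 min 37° C. IC50 by sigmoidal fit.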

[5] = biological target: T1, Recombinant human PSGL-1(ECD)-hFc1 (R&D …); test: blocking ELISA vs P-selectin-Fc
Summary of the method: as §1

[6] = biological target: T4, Cynomolgus PSGL-1(ECD)-HIS; test: ELISA, plate cyno PSGL-1(ECD)-HIS
Summary of the method: (§2)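 Cyno PSGL-1 ECD protein coated overnight at 4° C. at 3 ug/mL in PBS pH 7.4; anti-PSGL-1 IgG added either at single 20 nM or as 0.003-200 nM binding curve, 45 min at 37° C. Bound mAb read at A450 nm with HRP/TMB; duplicates averaged, background subtracted.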

[7] = biological target: T5, Biotin sY51 PSGL-1(42-62) peptide; test: ELISA, immobilized biotin peptide
Summary of the method: (§3)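 In this ELISA, half-well high binding plates (Corning Cat. #3690) received 3 ug/mL/25 ul per well of biotin-tagged PSGL-1 peptides covering residues 42 to 62, diluted in PBS, pH 7.4, and coated overnight at 4° C. Duplicate readings for each antibody were averaged and the average assay background was subtracted. PSGL-1 protein or peptide was the positive control.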

[8] = biological target: T6, Scrambled Y46,48,51(SO3) PSGL-1(42-62) …; test: ELISA, immobilized biotin peptide
Summary of the method: as §3

[9] = biological target: T2, Biotin PSGL-1(42-62) peptide, unmodified; test: ELISA, immobilized biotin peptide
Summary of the method: as §3

[10] = biological target: T3, Biotin Y46,48,51(SO3) PSGL-1(42-62) …; test: ELISA, immobilized biotin peptide
Summary of the method: as §3

[11] = biological target: T7, Cynomolgus PSGL-1(ECD)-hFc1 (cynomolgus macaque); test: ELISA, 20 nM mAb on plate cyno PSGL-1(ECD)-Fc
T7 construct: also called Cyno PSGL1-Fc; Cyno PSGL-1(ECD)-Fc
Summary of the method: as §2

T7 sequence (chain, as listed by the source limits assumed): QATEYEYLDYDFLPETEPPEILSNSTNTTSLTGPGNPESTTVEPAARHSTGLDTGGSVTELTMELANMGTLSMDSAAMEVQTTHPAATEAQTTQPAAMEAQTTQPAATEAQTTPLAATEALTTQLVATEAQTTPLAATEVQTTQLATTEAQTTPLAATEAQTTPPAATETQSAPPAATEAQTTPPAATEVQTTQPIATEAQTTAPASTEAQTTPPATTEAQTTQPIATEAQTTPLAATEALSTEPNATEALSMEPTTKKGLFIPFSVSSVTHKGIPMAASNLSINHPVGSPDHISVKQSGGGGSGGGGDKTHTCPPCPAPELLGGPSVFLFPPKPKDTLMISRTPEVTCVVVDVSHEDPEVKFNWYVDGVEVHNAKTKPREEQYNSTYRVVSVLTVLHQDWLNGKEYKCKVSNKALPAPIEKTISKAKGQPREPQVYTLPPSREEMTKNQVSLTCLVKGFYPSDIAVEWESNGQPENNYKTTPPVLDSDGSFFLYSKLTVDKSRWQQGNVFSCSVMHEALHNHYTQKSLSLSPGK

| EC50 [1] | EC50 [2] | EC50 [3] | % max Block [4] | IC50 [4] | % max Block [5] | IC50 [5] | EC50 [6] | EC50 [7] | EC50 [8] | EC50 [9] | EC50 [10] | binding result [8] | A450nm [11] | Binder |
| --- | --- | --- | --- | --- | --- | --- | --- | --- | --- | --- | --- | --- | --- | --- |
| 0.6 nM | 1.02 nM | 1.21 nM | 0% |  | 0% |  | 0.58 nM | 0.659 nM | 30 nM | 0.694 nM | 0.87 nM |  |  | 2E12 (antibody, V domains shown, Mouse hybridoma mAb; only variable domains given) VH: QVQLQQSGAELARPGASVKLSCKASGYTFTNYGLNWVKQRTGQGLEWIGEIYPRSGNTYYNEKFKGKATLTADKSSSTAYMQLSSLTSEDSAVYFCATEGAYWGQGTLVTVSA VL: DIVMTQTPLTLSVTIGQPASISCKSSQSLLHGNGKTYLNWLLQRPGQSPKLLIYLVSKLESGIPDRFSGSGSGTDFTLEISRVEAEDLGIYYCLQSTHFPRTFGGGTKLEIK |
| 0.57 nM | 0.68 nM | 0.45 nM | 100% | 10 nM | 100% | 6 nM | 0.51 nM | 0.705 nM |  | 0.702 nM | 0.658 nM | no binding | 2 A450 nm | 18F02 (antibody, V domains shown, From mouse immunisation; only variable domains given) VH: QVQLQQPGAELVKPGASVKLSCKASGYTFTSYWMHWVKQRPGQGLEWIGMIHPNSGRTNYNEKFKSKATLTVDKSSSTAYMQLSSLTSEDSAVYYCARSDYWGQGTTLTVSS VL: DIVMTQAAFSNPVTLGTSASISCRSSKSLLHSDGITYLYWFLQRPGQSPQLLIYRMSNLASGVPDRFSGSGSGTDFTLRISRVEAEDVGVYYCAQMLEFPRTFGGGTKLEIK |
| 0.96 nM | 0.89 nM | 0.92 nM | 100% | 9 nM | 100% | 10 nM | 0.53 nM | 0.814 nM |  | 0.695 nM | 0.699 nM | no binding | 1.22 A450 nm | 16L15 (antibody, V domains shown, From mouse immunisation; only variable domains given) VH: DVKLVESGGGLVKLGGSLKLSCAASGFTFSSYYMSWVRQTPEKRLEWVATISNGGGSTYYPDSVKDRFTISRDNAKNTLYLQMSSLNSEDTAVYYCAKPLYYSNPWFAYWGQGTLVTVSA VL: DVLLTQTPLSLPVSLGDQASISCRSSQSIVHSNGNTYLEWYLQKPGQSPKLLIYKVSNRFSGVPDRFSGSGSGTDFTLKISRVEAEDLGVYYCFQGSHVPRTFGGGTKLEIK |

Continued, binder first:

| Binder | EC50 [1] | EC50 [2] | EC50 [3] | % max Block [4] | IC50 [4] | % max Block [5] | IC50 [5] | EC50 [6] | EC50 [7] | EC50 [8] | EC50 [9] | EC50 [10] | binding result [8] | A450nm [11] |
| --- | --- | --- | --- | --- | --- | --- | --- | --- | --- | --- | --- | --- | --- | --- |
| 19I01 (antibody, V domains shown, From mouse immunisation; only variable domains given; also called 19101) VH: EVQLVESGGGLVKPGGSRKLSCAASGFTFSDYGMHWVRQAPEKGLEWVAYISSGSSTIYYADTVKGRFTISRDNAKNTLFLQMTSLRSEDTAMYYCARGVDGYWGQGTTLTVSS VL: DVVMTQTPLSLPVSLGDQASISCRSSQSLVHSNGNTYLHWYLQKPGQSPKFLIYKVSNRFSGVPDRFSGSGSGTDFTLKISRVEAEDLGVYFCSQTTHVPLTFGAGTKLELK | 1.23 nM | 0.92 nM | 0.92 nM | 100% | 5 nM | 100% | 4 nM | 0.68 nM | 1.22 nM | 198 nM | 0.844 nM | 0.844 nM |  |  |
| 5E12 (antibody, V domains shown, Mouse hybridoma mAb; only variable domains given) VH: EIQLQQSGAELVRPGASVKLSCTASGFNIKDDYIHWVKQRPEQGLEWIGRIDPANGNTKSAPKFQDKATITADTSSNTAYLHLSSLTSEDTAVYYCSIRFAYWGQGTLVTVSA VL: DVVMTQTPLSLSVSLGDQASISCRSSQSLVYRNGDTYLHWFLQKPGQSPKLLIYKVSNRFSGVPDRFSGSGSGTDFTLKISRVEAEDLGIYFCSQNTHVPYTFGGGTKLEIK | 0.51 nM | 0.86 nM | 0.92 nM | 0% |  | 0% |  | 0.59 nM | 0.547 nM | 32.3 nM | 0.539 nM | 0.633 nM |  |  |
